Experimental findings from PMC10143249, “The Non-Canonical Iron-Responsive Element of IRE-tvcp12 Hairpin Structure at the 3′-UTR of Trichomonas vaginalis TvCP12 mRNA That Binds TvHSP70 and TvACTN-3 Can Regulate mRNA Stability and Amount of P” are described below.

The target in series [1] is T1, TvACTN-3r (alpha-actinin 3) (Trichomonas vaginalis, UniProt X5FVA1 1-1129).
T1 sequence: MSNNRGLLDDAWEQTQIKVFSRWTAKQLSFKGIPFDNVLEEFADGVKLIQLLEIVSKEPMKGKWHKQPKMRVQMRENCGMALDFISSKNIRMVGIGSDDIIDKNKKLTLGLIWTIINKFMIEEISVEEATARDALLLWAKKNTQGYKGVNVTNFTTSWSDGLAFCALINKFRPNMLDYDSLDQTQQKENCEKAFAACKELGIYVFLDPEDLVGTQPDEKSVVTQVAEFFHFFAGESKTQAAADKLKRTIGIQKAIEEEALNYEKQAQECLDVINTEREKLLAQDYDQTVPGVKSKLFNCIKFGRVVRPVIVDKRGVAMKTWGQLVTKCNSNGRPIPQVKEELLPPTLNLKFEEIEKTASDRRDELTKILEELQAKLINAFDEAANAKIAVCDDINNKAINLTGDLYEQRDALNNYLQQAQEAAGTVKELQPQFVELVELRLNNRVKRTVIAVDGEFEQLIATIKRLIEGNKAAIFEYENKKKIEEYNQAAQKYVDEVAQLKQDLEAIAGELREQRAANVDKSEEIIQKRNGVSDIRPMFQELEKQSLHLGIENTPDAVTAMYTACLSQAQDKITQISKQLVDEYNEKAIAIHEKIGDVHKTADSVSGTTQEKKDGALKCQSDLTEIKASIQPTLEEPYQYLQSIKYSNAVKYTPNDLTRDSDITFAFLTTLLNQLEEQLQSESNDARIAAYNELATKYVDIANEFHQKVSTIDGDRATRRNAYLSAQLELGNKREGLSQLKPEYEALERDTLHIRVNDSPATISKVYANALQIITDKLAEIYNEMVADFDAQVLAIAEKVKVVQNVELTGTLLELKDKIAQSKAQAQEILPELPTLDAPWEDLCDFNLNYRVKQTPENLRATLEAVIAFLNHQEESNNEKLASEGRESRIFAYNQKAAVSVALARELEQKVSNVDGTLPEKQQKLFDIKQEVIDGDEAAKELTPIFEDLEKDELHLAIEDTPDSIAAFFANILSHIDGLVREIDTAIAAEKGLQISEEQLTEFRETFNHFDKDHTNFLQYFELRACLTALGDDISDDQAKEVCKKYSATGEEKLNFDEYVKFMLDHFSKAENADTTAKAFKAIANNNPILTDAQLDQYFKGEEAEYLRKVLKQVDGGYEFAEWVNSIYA
Put plainly: Northwestern blot; REMSA: 20 uL, 0.2 ng 32P-RNA, 1 ug hIRP-1r or 50 ug T. vaginalis extract, 5 ug heparin, 10 min at 25 C, 6% native gel; buffer, salt and pH not given; Northwestern conditions not given. As to conditions: protein: recombinant; label: 32P (alpha-32P UTP); hairpin.

The target in series [2] is T2, hIRP-1r (iron regulatory protein 1) (human, UniProt P21399 1-889).
T2 sequence: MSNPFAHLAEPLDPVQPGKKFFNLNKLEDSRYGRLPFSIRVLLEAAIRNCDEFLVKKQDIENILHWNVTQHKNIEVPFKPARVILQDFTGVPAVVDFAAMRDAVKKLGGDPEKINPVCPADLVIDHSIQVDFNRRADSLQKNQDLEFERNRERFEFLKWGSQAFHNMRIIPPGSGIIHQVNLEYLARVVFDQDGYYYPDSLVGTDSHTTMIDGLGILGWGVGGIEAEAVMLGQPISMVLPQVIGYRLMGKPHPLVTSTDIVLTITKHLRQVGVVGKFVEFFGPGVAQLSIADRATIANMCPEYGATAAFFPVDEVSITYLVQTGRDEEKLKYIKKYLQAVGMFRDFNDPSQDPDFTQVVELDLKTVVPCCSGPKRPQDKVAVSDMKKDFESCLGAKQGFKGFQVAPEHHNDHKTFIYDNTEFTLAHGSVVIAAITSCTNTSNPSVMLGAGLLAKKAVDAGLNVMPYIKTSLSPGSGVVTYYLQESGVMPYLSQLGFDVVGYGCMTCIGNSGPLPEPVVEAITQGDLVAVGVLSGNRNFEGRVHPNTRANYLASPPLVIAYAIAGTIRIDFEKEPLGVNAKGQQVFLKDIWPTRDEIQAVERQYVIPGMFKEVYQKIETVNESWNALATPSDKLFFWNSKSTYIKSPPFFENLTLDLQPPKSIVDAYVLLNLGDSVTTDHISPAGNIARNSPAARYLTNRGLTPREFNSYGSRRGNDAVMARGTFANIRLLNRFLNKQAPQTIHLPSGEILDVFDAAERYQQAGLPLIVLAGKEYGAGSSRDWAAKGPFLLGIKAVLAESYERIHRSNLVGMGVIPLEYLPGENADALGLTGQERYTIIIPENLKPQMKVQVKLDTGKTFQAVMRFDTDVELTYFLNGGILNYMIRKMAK
Put plainly: EMSA; 5 ug heparin; REMSA: 20 uL, 0.2 ng 32P-RNA, 1 ug hIRP-1r or 50 ug T. vaginalis extract, 5 ug heparin, 10 min at 25 C, 6% native gel; buffer, salt and pH not given; Northwestern conditions not given. As to conditions: protein: recombinant; (pGEX plasmid); label: 32P (alpha-32P UTP); hairpin.

For the molecule GGGACGUAUUUAAUUGAUUGCG (structured_RNA) [IRE-tvcp12 (wild type)], the binding result in series [1] and in series [2] was “binds” in each case.
